Experimental findings from US20060171884A1 (Amgen, published 2006) are described below.

For assay [1], the target named is Rhesus Macaque MTSP-1 on 4MBr5 cells (rhesus macaque) (UniProt H9ZCT3). As to the kind of experiment: FACS on 4MBr5 monkey lung epithelial cells, antibody at 1 µg/ml.
For assay [2], the target named is native human Matriptase on cells (human) (UniProt Q9Y5Y6). As to the kind of experiment: FACS on 22Rv1 cells, antibody at 1 µg/ml.
The target in assay [3] is T1, Matriptase (soluble enzyme, form not stated) (human, UniProt Q9Y5Y6 615-855, limits assumed).
T1 construct: also called Matriptase-1; MT-SP1
T1 sequence: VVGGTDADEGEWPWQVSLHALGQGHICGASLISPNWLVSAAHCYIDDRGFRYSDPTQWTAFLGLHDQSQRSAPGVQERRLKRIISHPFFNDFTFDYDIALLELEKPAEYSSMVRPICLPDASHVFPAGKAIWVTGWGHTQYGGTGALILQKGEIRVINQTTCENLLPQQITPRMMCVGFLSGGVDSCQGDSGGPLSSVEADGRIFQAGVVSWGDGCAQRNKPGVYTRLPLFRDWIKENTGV
As to the kind of experiment: competition ELISA: 125 ng/ml biotinylated MTSP1 pre-incubated 1 hour with titrated HAI-1, then transferred to a sc95/96 coated plate, bound MTSP detected with SA-pod; competitor: plate-coated sc95/96. A general note: In an ELISA, binding on a coated surface is turned into a signal by an enzyme label.

On to IgG1 irrelevant control antibody, for which the geomean (geomean fluorescence) in assay [1] and in assay [2] was 5 in each case.

B1: HAI-1 (soluble, as titrated in the competition assay) (other, UniProt O43278 36-465, looked up)
chain: GPPPAPPGLPAGADCLNSFTAGVPGFVLDTNASVSNGATFLESPTVRRGWDCVRACCTTQNCNLALVELQPDRGEDAIAACFLINCLYEQNFVCKFAPREGFINYLTREVYRSYRQLRTQGFGGSGIPKAWAGIDLKVQPQEPLVLKDVENTDWRLLRGDTDVRVERKDPNQVELWGLKEGTYLFQLTVTSSDHPEDTANVTVTVLSTKQTEDYCLASNKVGRCRGSFPRWYYDPTEQICKSFVYGGCLGNKNNYLREEECILACRGVQGGPLRGSSGAQATFPQGPSMERRHPVCSGTCQPTQFRCSNGCCIDSFLECDDTPNCPDASDEAACEKYTSGFDELQRIHFPSDKGHCVDLPDTGLCKESIPRWYYNPFSEHCARFTYGGCYGNKNNFEEEQQCLESCRGISKKDVFGLRREIPIPSTGSVE
As for B1, the “IC50 (read off the curve)” value in assay [3] was roughly 40 nM.
